Reference: publication PMC7781312 (bioRxiv, 2021)
Non-standard residues stand in square brackets, D forms with d. Primed or numbered codes have the meaning given here. No end group written: not given here. PEG6′ = PEG spacer between stem peptide and Lys-biotin; Biotin′ = not defined here

Experiments:
[1] = molecular target: T1, biotinylated MERS-CoV S stem helix peptide (MERS-CoV EMC/2012 (AFS88936), UniProt K0BRG7); experiment: BLI
T1 chain: DFQDELDEFFKNVST[PEG6′]K-{Biotin′}

[2] = molecular target: T2, biotinylated OC43 S stem helix peptide (HCoV-OC43 (Q696P8), UniProt Q696P8); experiment: BLI
T2 chain: DFKEELDQWFKNQTS[PEG6′]K-{Biotin′}

[3] = molecular target: T3, biotinylated HKU5 S stem helix peptide (Bat coronavirus HKU5 (A3EXD0), UniProt A3EXD0); experiment: BLI
T3 chain: DFKEELEEFFKNVSS[PEG6′]K-{Biotin′}

[4] = molecular target: T4, biotinylated HKU4 S stem helix peptide (Bat coronavirus HKU4 (A3EX94), UniProt A3EX94); experiment: BLI
T4 chain: DFKDELEEFFKNVTS[PEG6′]K-{Biotin′}

[5] = molecular target: T5, biotinylated mouse hepatitis virus S stem helix peptide (Murine hepatitis virus A59 (P11224), UniProt P11224); experiment: BLI
T5 chain: DFKEELDKWFKNQTS[PEG6′]K-{Biotin′}

[6] = molecular target: T6, biotinylated SARS-CoV/SARS-CoV-2 S stem helix peptide (SARS-CoV-2 / SARS-CoV, identical …, UniProt P0DTC2); experiment: BLI
T6 chain: SFKEELDKYFKNHTS[PEG6′]K-{Biotin′}

[7] = molecular target: T7, MERS-CoV S stem helix peptide, residues 1230-1244 (crystallised) (MERS-CoV, UniProt K9N5Q8); experiment: crystal structure
T7 chain: DFQDELDEFFKNVST

[8] = molecular target: T8, SARS-CoV/SARS-CoV-2 S stem helix peptide (crystallised) (SARS-CoV-2 / SARS-CoV, identical …, UniProt P0DTC2); experiment: crystal structure
T8 chain: SFKEELDKYFKNHTS

[9] = molecular target: T9, HKU4 S stem helix peptide, residues 1231-1245 (crystallised) (bat coronavirus HKU4, UniProt A3EX94); experiment: crystal structure
T9 chain: DFKDELEEFFKNVTS

[10] = molecular target: T10, MERS-CoV S stem helix peptide, residues 1230-1240 (crystallised) (MERS-CoV (EMC/2012 numbering), UniProt K9N5Q8); experiment: crystal structure
T10 chain: DFQDELDEFFK

Measured: binding result

B1: B6 monoclonal antibody (recombinant IgG with human constant regions) (antibody, V domains shown)
VH: EVQLQQSGPVLVKPGASVRMSCKASGYTITDYYLNWVKQSHGKSLEWLGVLNPYSGGSLYSQTFKGKATLTVDRSSSTAYLELNSLTSEDSAVYYCARQLGRGNGLDYWGQGTSVTVSS
VL: NIMMTQSPSSLAVSAGEKVTMSCKSSQSVLHSSDQKNYLAWYQQKPGQSPKLLIYWASTRESGVPDRFTGSGSGTDFTLTISSVQAEDLAVYFCHQYLSSYTFGGGTKLEIK
binds: [1] | [2] | [3] | [4] | [5] | [6]

B2: B6 Fab fragment (Fab, V domains shown)
VH: B1 VH
VL: B1 VL
binds: [7] | [8] | [9] | [10] | [1] | [2] | [3] | [4] | [5] | [6]
